According to US20240218024A1, “METHODS AND COMPOSITIONS FOR TREATMENT OF VIRAL INFECTION” (TECHNION RESEARCH & DEVELOPMENT FOUNDATION LIMITED, priority 2021, published 2024):

Columns and labels:
[1] = test system: SARS-COV-2 delta variant; format: cell-based; conditions: slncRNA alone, low concentrations (potentially a non-specific effect at higher concentrations)
[2] = test system: SARS-COV-2 omicron variant; format: cell-based; conditions: slncRNA alone, low concentrations (potentially a non-specific effect at higher concentrations)

B1: PCP-14×/MCP-15×: class II slncRNA with fourteen PCP binding sites spaced by hairpins that do not bind PCP (SEQ ID NO: 28) (nucleic acid)
chain: GAGAAACGTTTCGACATTATATGGAATGCGAAAGTGGAACGTAATGGACATGAAGACGATTACGCTTCACACGGAGGATGCGGGAAACATGAAGATCACCCATGTTCGCTTAACCATGGATAGGGATCACCCATGTTGCGGTGGTGCGTCAACCAGAGATTTCATATGGGAAACTCTGGGACACGCTGTATTTATACATGAGGATCACCATGTGTGCTTAAATATGGGTAAGTTGACCATTAGGCAACTGTAAGATGCTCCGGTTAATTCCAGTTTATATGGAAACGGAATTGATGTACCGTTGAGCAAGAACACGATTACGGTTCTTCGATTAGATATGGTTTAAACGACAATATATGGATTGCGTTTTGGGGCACGCCGTCTGGAGAAGACCATTAGGCTTCTTTACTGCGACCGCAATAAAAGGAGATTATATGAAATCCCTTTGCGCGCAACCGGGTAGAAGATCACCATTAGGGATCTGTAACTCACGGCGCTATTACGAGTCAATATGGTGACCGTAAAGCTAGGGCATGTGCCAGAAGAGCATTAGCCTTCTCCTTGGTGGGGAAGCGATAAGCACATTATAAGGAATGGCTTAAAGTGGTGCGGCGGGGGACTTGACCATTAGGCAAGTGTGCTAGACCCTGGTCTTTTCGAGAAAATATGGTTTCCGAAAGAACTATACGAAGTGACATGCGAGGATTACCCGCATATGGTGCAAATGGGAGAATTGGAGTAAATATGGTTACCCAATAGGCTAGAGCATGACGGCAGTGAGAATTATCCACTGGTTAGCGGGTTACCGAGATTGCACATTATATGGAATGGCAATTGATTCATGCCGGTCGTTTGTGAGGAGTACCCACAAAATGGGAGGGTGCTATATAACCAGGTTATATGCAACCGGTTAGGCCGTTGTGTTAGTTTAGTTCAGCATTAGCGAACTGTGCAAGACCCGGTGGCTAAGGAGTTTATATGGAAACCCTTAGCCCTCGAGCATGCTAACATGAGGATTACCCATGTGATGGGTTTGAAACGTGCAATTATTTGATATGGCAAAAATTGGGTAGGGCATGGCTGCAGCGTGAGAATTATCCACGCTAGGCTAGAGCATGGCGGTATTGAGTTCGGGTTTGAGATGACCATTAGGCATCTGTGCTAGAGCATGCGAAAACGACATAATATGGTATGCGTTTTGGGGTGCTAGTATACCACATGATGAGCACACATGTATGGGTGGGAGGTAGAGGGATTCTCGCGAGAAGA
In the case of B1, the antiviral response [1] is reported as “no substantial antiviral response” and the antiviral response [2] is reported as “no substantial antiviral response”.
